This is an account of results in US11306156.

Test [1] addresses tissue factor (TF) antigen (UniProt P13726). The test is described as follows: SPR, ProteOn XPR36; His-tagged Fab captured on anti-penta-His, TF injected; 1:1 fit. (Surface plasmon resonance follows binding to a sensor surface in real time, without labels.)
Test [2] shares this target. Description: SPR as for KD; reference: wild-type D3H44 Fab.
The target is the same in test [3]. Description: SPR (ProteOn XPR36), His-tagged Fab captured on anti-penta His, TF as analyte, 1:1 fit; batch C (+).
Test [4] shares this target. Description: SPR (ProteOn XPR36), His-tagged Fab captured on anti-penta His, TF as analyte; against wild-type D3H44 Fab; batch C (+).
Test [5] has as its target D3H44 light chain Q124E_Q160E_T180E (Kabat) with N-terminal HA or FLAG tag. Description: LCCA, SPR read-out of light-chain tags; light-chain DNA 1:3 normalized to 1:1; competing light chain m18.
For test [6], the target named is D3H44 light chain T178R (Kabat) with N-terminal HA or FLAG tag. The test is described as follows: LCCA, SPR read-out of light-chain tags; light-chain DNA 1:3 normalized to 1:1; competing light chain m17.
In test [7] the target is tissue factor (TF) antigen (UniProt P13726). The test is described as follows: SPR (ProteOn XPR36), Fab captured on anti-penta-His surface, TF as analyte, 1:1 fit.
For test [8] the target is unchanged. Description: SPR (ProteOn XPR36), Fab captured on anti-penta-His surface, TF as analyte; reference wild-type D3H44 Fab.
Test [9] concerns the target D3H44 light chain Q124R_Q160K_T178R (Kabat) with N-terminal HA or FLAG tag. Description: LCCA, SPR read-out of light-chain tags; light-chain DNA 1:3 normalized to 1:1; competing light chain m17.
Test [10] deals with D3H44 light chain Q124E_Q160E_T180E (Kabat) with N-terminal HA or FLAG tag. The test is described as follows: LCCA, SPR read-out of light-chain tags; light-chain DNA 1:3 normalized to 1:1; competing light chain m20.

Regarding “D3H44 Fab heterodimer, H1L1 of LCCA Sets # 9692, 9696, 9688, 9702 and 9700 (H1 L143E_K145T_Q179E_S188L; L1 Q124R_T178R)”, the Kd in test [1] was 0.34 nM. In test [2], this substance returned a change in median KD compared to wild type, -(log(KD design)-log(KD wt)) of -0.34.

The substance “D3H44 Fab heterodimer, H1 Q39E_L143E_K145T / L1 Q38R_Q124R_Q160K_T178R (H1L1 Fab of LCCA Set # 9817)” displayed a Kd in test [3] of 0.18 nM. In [4], the Change in median values of KD of h1|1 Fab heterodimer compared to wild type (-(log(KD design)-log(KD wt))) was -0.05.

As for “D3H44 Fab heavy chain L143D_K145T_Q179E (Kabat) with C-terminal ABD2-His6 tag”, the H1L1:H1L2 normalized median ratio in test [5] came out at 11%; in test [6], 89%. Moreover, the H1L1:H1L2 normalized median scalar value ln(r1/f1) in test [6] is 2.1.

In turn, “D3H44 Fab heterodimer, H1L1 of LCCA Set # 9568 (H1 L124W_L143F; L1 V133A_S176T_T178L)” came in with a Kd in test [1] of 0.3 nM. In test [2], this substance returned a change in median KD compared to wild type, -(log(KD design)-log(KD wt)) of -0.28.

With “D3H44 Fab heterodimer, H1L1 of LCCA Sets # 9567 and 9566 (H1 L124W_L143F; L1 V133A)”, in test [1], the Kd amounted to 0.25 nM. In addition, the change in median KD compared to wild type, -(log(KD design)-log(KD wt)) in test [2] is -0.21.

The substance “D3H44 Fab heterodimer, H1 L143E_K145T_P175C_Q179E / L1 Q124R_S162C_T178R (H1L1 Fab of LCCA Set # 9613)” had a Kd in test [3] of 0.12 nM. The substance also showed a Change in median values of KD of h1|1 Fab heterodimer compared to wild type (-(log(KD design)-log(KD wt))) in [4] of 0.12.

As to “D3H44 Fab heterodimer, H1 Q39R_S186R / L1 Q38E_Q124E_Q160E_T180E (H1L1 Fab of LCCA Set # 9828)”, the Kd in test [3] worked out at 0.14 nM. Besides, the Change in median values of KD of h1|1 Fab heterodimer compared to wild type (-(log(KD design)-log(KD wt))) in test [4] came out at 0.07.

On to “D3H44 Fab heterodimer, H1L1 of LCCA Sets # 9057, 9056 and 9055 (H1 A139G_V190A; L1 L135W_S176L)”, for which the Kd in test [1] was 0.16 nM. In test [2], this substance showed a change in median KD compared to wild type, -(log(KD design)-log(KD wt)) of -0.02.

“D3H44 Fab heterodimer H1 L124A / L1 V133W”: the Kd in [7] was 0.13 nM. The substance also yielded a Change in median values of KD of h1l1 Fab heterodimer compared to wild type (-(log(KD design)-log(KD wt))) in [8] of 0.07.

The substance “D3H44 Fab heterodimer H1 L124R_A125R_H172T / L1 V133G_N137K_S174R_S176D” registered a Kd in test [7] of 0.23 nM. In test [8], the Change in median values of KD of h1l1 Fab heterodimer compared to wild type (-(log(KD design)-log(KD wt))) was -0.16.

For the substance “D3H44 Fab heterodimer H1 L45P_L143E_K145T_H172R / L1 P44F_Q124R_Q160K_T178R”, in test [7], the Kd was determined as 0.29 nM. Further, the Change in median values of KD of h1l1 Fab heterodimer compared to wild type (-(log(KD design)-log(KD wt))) in test [8] is -0.27.

As for “D3H44 Fab heterodimer, H1 S186R / L1 Q38E_Q124E_Q160E_T180E (H1L1 Fab of LCCA Set # 9905)”, in test [3], the Kd was 0.1 nM. In test [4], the Change in median values of KD of h1|1 Fab heterodimer compared to wild type (-(log(KD design)-log(KD wt))) stood at 0.2.

“D3H44 Fab heterodimer H1 L124A_S186K / L1 Q124E_V133W_T180E” showed a Kd in test [7] of 0.15 nM. In [8], this substance had a Change in median values of KD of h1l1 Fab heterodimer compared to wild type (-(log(KD design)-log(KD wt))) of 0.02.

Substance “D3H44 Fab heterodimer H1 L124R_H172T / L1 V133G_N137K_S174R_S176D” yielded a Kd in test [7] of 0.23 nM. In test [8], this substance showed a Change in median values of KD of h1l1 Fab heterodimer compared to wild type (-(log(KD design)-log(KD wt))) of -0.16.

Take “D3H44 Fab heavy chain Q179K (Kabat) with C-terminal ABD2-His6 tag”: the H2L2:H2L1 normalized median ratio in test [5] was determined as 78%; in test [6], 22%; in [9], 13%; in test [10], 87%.

The substance “D3H44 Fab heterodimer H1 L124W_L143E_K145T_Q179E / L1 Q124R_V133A_S176T_T178R” displayed a Kd in test [7] of 0.21 nM. Moreover, the Change in median values of KD of h1l1 Fab heterodimer compared to wild type (-(log(KD design)-log(KD wt))) in test [8] was -0.13.

A word on the Kd: it is the concentration at which binding is half-saturated. Lower therefore signals a tighter complex.
